From patent US7303917B2, “Modification of pollen coat protein composition” (priority 1998, dated 2007)
“Also recorded” adds a separate entry of the source.

T1: papain (Carica papaya, UniProt P00784)
T1 sequence (P00784 whole entry, looked up): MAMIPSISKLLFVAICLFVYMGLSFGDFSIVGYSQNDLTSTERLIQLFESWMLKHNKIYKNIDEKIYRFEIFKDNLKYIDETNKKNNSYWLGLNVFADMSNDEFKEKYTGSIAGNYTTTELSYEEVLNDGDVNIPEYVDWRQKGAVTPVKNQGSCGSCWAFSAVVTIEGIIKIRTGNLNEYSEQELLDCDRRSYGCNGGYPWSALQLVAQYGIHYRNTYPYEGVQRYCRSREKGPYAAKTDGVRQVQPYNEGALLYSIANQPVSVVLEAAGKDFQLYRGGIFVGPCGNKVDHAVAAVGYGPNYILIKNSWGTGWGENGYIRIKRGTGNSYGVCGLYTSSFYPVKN


Key:
[1] = test system: Nicotiana tabacum cv. Delgold pollen; experiment: In vitro germination of tobacco pollen; format: cell-based; conditions: 42 μM papain, 71 μM cycloheximide; for effect on germination and pollen tube growth: 30 μM onchocystatin added to 42 μM papain; for Average Pollen Tube Length / Pollen Germination: 3 h culture, 25° C, 30 μM onchocystatin, 1 mg/ml casein
Protocol: Pollen from Nicotiana tabacum cv. Delgold was harvested by placing 5 dehiscent anthers in 1 ml of sterile Brewbaker and Kwack medium (Brewbaker, J. and Kwack, B. Amer. J. Bot. 50: 859-865 (1963)) containing various concentrations of cylcoheximide, or papain, or casein. The medium consisted of 10% w/v sucrose, 100 ppm H3BO3, 300 ppm Ca (NO3)2.4H2O, 200 ppm MgSO4.7H2O, and 100 ppm KNO3 with either 42 μM papain (twice crystallized, Sigma), with or without 30 μM recombinant onchocystatin, or 71 μM cycloheximide (Sigma), or 1 mg/ml casein. Anthers were vortexed in medium for 30 sec followed by centrifugation at 2,000 rpm for 2 min. Pollen was cultured in 50 μl drops in sterile 15×60 mm petri dishes at 25° C. The percentage of pollen grains germinated after 3 h of culture was measured and the average pollen tube length was recorded using an ocular micrometer on an inverted microscope.

papain [2] = target: papain (Carica papaya, UniProt P00784); experiment: Protease inhibition assay (papain, Pyr-Phe-Leu-pNA); format: biochemical; conditions: 20 ng papain, 2 to 3 h, read at 410 nm
Protocol: (§1) Mature pollen was isolated by gently squeezing anthers from open flowers just prior to anther dehiscence in a microfuge tube with a pestle to release the pollen grains and suspend them in extraction buffer (100 mM HEPES pH 7.5, 10 mM KCl, 1 mM MgCl2, 1 mM EDTA, 1 mM DTT, 0.4 M sucrose, 0.01% Triton X-100). Pollen grains were filtered through […] mesh to remove debris, pelleted by centrifugation and frozen in liquid nitrogen. Pollen grains were ground to a fine powder, mixed with 1.4 μl per anther of extraction buffer (100 mM MES pH 6.5, 1% Triton X-100) and centrifuged at 4° C. for 5 min. Protein contents of extracts were determined using the BioRad Protein Assay.
(§2) For the protease inhibition assay, 5 μg of protein extract in 50 μl of extraction buffer described above was added to a microtiter plate followed by 20 ng of papain in 50 μl of 50 mM MES pH6.5 and incubated for 15 min at room temperature. Then 100 μl of substrate solution (1 mM Pyr-Phe-Leu-pNA (BACHEM) in activation buffer (30% DMSO, 1 mM EDTA,.1 mM DTT in 50 mM MES pH 6.5)) was added and the plate incubated in the dark at room temperature. The plate was read after 2 to 3 h of incubation on a plate reader at 410 nm. Results were calculated as the percentage of papain protease activity present in the mature pollen protein extract of the non-transformed control plant±standard deviation. […]

papain [3] = target: T1, papain; experiment: Phage ELISA, wells coated with papain; format: binding; conditions: well coated with papain
Protocol: (§3) A SacI and Nco I digest of the coding region of the protease inhibitor clone OV7 (Lustigman et al 1991), is ligated to the pCantab 5E vector (Pharmacia Biotech) Sac I and Nco I sites. This phagemid is transformed into E. coli TG1 cells by electroporation. An overnight culture of 10 μL of these cells are grown in 5 ml of SOBAG medium containing 10 μl of carbenicillin (50 mg/mL) at 28° C. The next day, 0.5 ml of this culture is used to inoculate 25 ml of 2×YT medium, containing 50 μl of carbenicillin (50 mg/ml) and 1.56 ml of 2M glucose and grown for 1.25 h at 37° C., with shaking at 250 rpm. At this point 62.5 μl of helper phage strain M13K07 ([…]) is added and the cells were incubated at 37° C. for 30 min with shaking at 150 rpm, and for another 30 min at 250 rpm. Recombinant phage particles are harvested by centrifugation and PEG precipitation. […]
(§4) After incubating the phage indicated (OV7-those displaying the cysteine protease inhibitor on their surface, M13-wild type or control phage not displaying any foreign protein, and a no phage control) for 2 h, the wells are washed in PBS with 0.5% Tween-20. Phage particles that bound to the antigens are detected with a 1:5000 dilution of anti-M13 antibody/HRP conjugate (Pharmacia). Detection is with the HRP substrate ABTS solution (Pharmacia) for 30 min and absorbance was measured at 410 nm.

anti-OV7 antibodies = experiment: Phage ELISA, wells coated with anti-OV7 antibodies; format: binding, rabbit; conditions: well coated with anti-OV7 antibodies; phage diluted 1 in 100
Protocol: as §3, §4

[4] = Phage ELISA, no antigen coated in well; format: binding
Protocol: as §3, §4

trypsin = experiment: Phage ELISA, wells coated with trypsin; format: binding; conditions: well coated with trypsin
Protocol: as §3, §4

papain [5] = target: T1, papain; experiment: Protease inhibition assay (papain, Pyr-Phe-Leu-pNA); format: biochemical; conditions: 20 ng papain, 2 to 3 h, read at 410 nm; remark: listed apart in the source
Protocol: as §1, §2

Row | Molecule | effect on germination and pollen tube growth [1] | Average Pollen Tube Length [1] | Pollen Germination [1] | also measured
1 | C[C@@H]1C[C@@H]([C@H](O)CC2CC(=O)NC(=O)C2)C(=O)[C@@H](C)C1 [Cycloheximide, cycloheximide] | inhibited the germination and elongation of pollen tubes | 15 μm | 27% | 
2 | CC(C)C[C@H](NC(=O)[C@H]1O[C@@H]1C(=O)O)C(=O)NCCCCN=C(N)N [E-64, reference compound] |  |  |  | percentage of papain protease activity of the non-transformed control plant extract (papain [2]): 3%
3 | Casein |  | 95 μm | 74% | 
4 | OV7: phage displaying the Onchocerca volvulus cysteine protease inhibitor OV7 on their surface as fusion to gene 3 coat protein (protein, left off: large carriers) AKNPSKMESKTGENQDRPVLLGGWEDRDPKDEEILELLPSILMKVNEQSNDEYHLMPIKLLKVSSQVVAGVKYKMDVQVARSQCKKSSNEKVDLTKCKKLEGHPEKVMTLEVWEKPWENFMRVEILGTKEV |  |  |  | Result (papain [3]): binding specifically to papain; O.D.410 (papain [3]; phage diluted 1 in 100): 0.788; O.D.410 (anti-OV7 antibodies): 0.451; Result [4]: very little OV7-plate; O.D.410 ([4]; phage diluted 1 in 100): 0.125; Result (trypsin): does not bind to trypsin; also recorded: no OV7-trypsin interaction; O.D.410 (trypsin; phage diluted 1 in 100): 0.037
5 | Papain: cysteine protease papain (twice crystallized, Sigma) (protein, UniProt P00784 134-345, looked up) Papain: IPEYVDWRQKGAVTPVKNQGSCGSCWAFSAVVTIEGIIKIRTGNLNEYSEQELLDCDRRSYGCNGGYPWSALQLVAQYGIHYRNTYPYEGVQRYCRSREKGPYAAKTDGVRQVQPYNEGALLYSIANQPVSVVLEAAGKDFQLYRGGIFVGPCGNKVDHAVAAVGYGPNYILIKNSWGTGWGENGYIRIKRGTGNSYGVCGLYTSSFYPVKN | inhibited the germination and stunted the growth of pollen tubes | 28 μm | 56% | 
6 | onchocystatin (OV7): recombinant cysteine protease inhibitor onchocystatin (OV7) from Onchocerca volvulus (protein) AKNPSKMESKTGENQDRPVLLGGWEDRDPKDEEILELLPSILMKVNEQSNDEYHLMPIKLLKVSSQVVAGVKYKMDVQVARSQCKKSSNEKVDLTKCKKLEGHPEKVMTLEVWEKPWENFMRVEILGTKEV | restored the germination and pollen tube growth |  |  | 
7 | OV7-GST: cysteine protease inhibitor OV7 conjugated to GST (protein, left off: a dimerising Fc or GST) AKNPSKMESKTGENQDRPVLLGGWEDRDPKDEEILELLPSILMKVNEQSNDEYHLMPIKLLKVSSQVVAGVKYKMDVQVARSQCKKSSNEKVDLTKCKKLEGHPEKVMTLEVWEKPWENFMRVEILGTKEV |  |  |  | percentage of papain protease activity of the non-transformed control plant extract (papain [5]): 2%
